The experiment addresses T1, GST-SMAD4 (full-length, WT) (human, UniProt Q13485 1-552).
T1 construct: SMAD4, human, Human ORFeome V8.1 clone; Gateway mammalian GST expression vector (Li et al., 2017); details in the Supplementary material; also called GST-tagged SMAD4 FL; GST-tagged SMAD4 WT; source: HEK293T, transfected, in lysate
T1 sequence (looked up): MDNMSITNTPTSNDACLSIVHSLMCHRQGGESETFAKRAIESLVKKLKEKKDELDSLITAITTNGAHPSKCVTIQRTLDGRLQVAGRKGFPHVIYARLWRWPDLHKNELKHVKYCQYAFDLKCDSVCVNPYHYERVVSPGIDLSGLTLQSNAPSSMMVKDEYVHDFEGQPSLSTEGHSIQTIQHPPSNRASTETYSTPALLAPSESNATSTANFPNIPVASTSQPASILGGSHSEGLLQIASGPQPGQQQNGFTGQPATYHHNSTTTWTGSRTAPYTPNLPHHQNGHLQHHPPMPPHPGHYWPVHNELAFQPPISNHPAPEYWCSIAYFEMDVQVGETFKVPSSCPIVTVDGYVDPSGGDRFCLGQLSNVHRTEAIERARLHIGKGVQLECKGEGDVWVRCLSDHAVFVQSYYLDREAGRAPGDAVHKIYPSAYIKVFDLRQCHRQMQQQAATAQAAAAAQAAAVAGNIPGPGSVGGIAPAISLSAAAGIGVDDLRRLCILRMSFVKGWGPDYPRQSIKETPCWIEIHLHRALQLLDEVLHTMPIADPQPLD
In words: FRET or BRET; TR-FRET of single pairs: GST-SMAD4 (WT, domain truncations, truncation mutants) with VF-tagged partners; signal as fold change over empty vector controls. The settings on record: partners not purified.

B1: Venus-Flag-tagged NFATc1 (VF-NFATc1), full-length WT (natural protein, human, UniProt O95644-2 1-716, looked up)
chain: MPSTSFPVPSKFPLGPAAAVFGRGETLGPAPRAGGTMKSAEEEHYGYASSNVSPALPLPTAHSTLPAPCHNLQTSTPGIIPPADHPSGYGAALDGGPAGYFLSSGHTRPDGAPALESPRIEITSCLGLYHNNNQFFHDVEVEDVLPSSKRSPSTATLSLPSLEAYRDPSCLSPASSLSSRSCNSEASSYESNYSYPYASPQTSPWQSPCVSPKTTDPEEGFPRGLGACTLLGSPRHSPSTSPRASVTEESWLGARSSRPASPCNKRKYSLNGRQPPYSPHHSPTPSPHGSPRVSVTDDSWLGNTTQYTSSAIVAAINALTTDSSLDLGDGVPVKSRKTTLEQPPSVALKVEPVGEDLGSPPPPADFAPEDYSSFQHIRKGGFCDQYLAVPQHPYQWAKPKPLSPTSYMSPTLPALDWQLPSHSGPYELRIEVQPKSHHRAHYETEGSRGAVKASAGGHPIVQLHGYLENEPLMLQLFIGTADDRLLRPHAFYQVHRITGKTVSTTSHEAILSNTKVLEIPLLPENSMRAVIDCAGILKLRNSDIELRKGETDIGRKNTRVRLVFRVHVPQPSGRTLSLQVASNPIECSQRSAQELPLVEKQSTDSYPVVGGKKMVLSGHNFLQDSKVIFVEKAPDGHHVWEMEAKTDRDLCKPNSLVVEIPPFRNQRITSPVHVSFYVCNGKRKRSQYQRFTYLPANGNAIFLTVSREHERVGCFF
notes: NFATc1, human, Human ORFeome V8.1 clone; also called VF-tagged NFATc1 FL; VF-tagged NFATc1 WT; source: HEK293T, transfected, in lysate; in live cells for the BRET screen
As to B1, the “TR-FRET PPI signal, fold-of-change (FOC) over negative controls” value is above 3 fold.

Source of the values: paper PMC12831459, “Identification and characterization of a TGF-β-independent SMAD4–NFATc1–STAT3 regulatory axis” (Journal of Molecular Cell Biology, 2025).
